In patent US20210063414A1, “METHODS FOR PREVENTING AND/OR TREATING BONE LOSS CONDITIONS BY MODULATING IRISIN” (Dana-Farber Cancer Institute, Inc., priority 2018, published 2021):

Experiments:
Experiment in all cases: Crosslinking/co-immunoprecipitation/mass spectrometry (TMT quantitative proteomics) to identify irisin receptors
Assay type in all cases: binding
[1] = molecular target: T1, MLO-Y4 cell surface proteins (Mus musculus, UniProt E9Q9D8); conditions: co-precipitated protein Ankrd35 (E9Q9D8_MOUSE)
T1 construct: endogenous in cells; host or cells: MLO-Y4
T1 sequence (E9Q9D8 1-996): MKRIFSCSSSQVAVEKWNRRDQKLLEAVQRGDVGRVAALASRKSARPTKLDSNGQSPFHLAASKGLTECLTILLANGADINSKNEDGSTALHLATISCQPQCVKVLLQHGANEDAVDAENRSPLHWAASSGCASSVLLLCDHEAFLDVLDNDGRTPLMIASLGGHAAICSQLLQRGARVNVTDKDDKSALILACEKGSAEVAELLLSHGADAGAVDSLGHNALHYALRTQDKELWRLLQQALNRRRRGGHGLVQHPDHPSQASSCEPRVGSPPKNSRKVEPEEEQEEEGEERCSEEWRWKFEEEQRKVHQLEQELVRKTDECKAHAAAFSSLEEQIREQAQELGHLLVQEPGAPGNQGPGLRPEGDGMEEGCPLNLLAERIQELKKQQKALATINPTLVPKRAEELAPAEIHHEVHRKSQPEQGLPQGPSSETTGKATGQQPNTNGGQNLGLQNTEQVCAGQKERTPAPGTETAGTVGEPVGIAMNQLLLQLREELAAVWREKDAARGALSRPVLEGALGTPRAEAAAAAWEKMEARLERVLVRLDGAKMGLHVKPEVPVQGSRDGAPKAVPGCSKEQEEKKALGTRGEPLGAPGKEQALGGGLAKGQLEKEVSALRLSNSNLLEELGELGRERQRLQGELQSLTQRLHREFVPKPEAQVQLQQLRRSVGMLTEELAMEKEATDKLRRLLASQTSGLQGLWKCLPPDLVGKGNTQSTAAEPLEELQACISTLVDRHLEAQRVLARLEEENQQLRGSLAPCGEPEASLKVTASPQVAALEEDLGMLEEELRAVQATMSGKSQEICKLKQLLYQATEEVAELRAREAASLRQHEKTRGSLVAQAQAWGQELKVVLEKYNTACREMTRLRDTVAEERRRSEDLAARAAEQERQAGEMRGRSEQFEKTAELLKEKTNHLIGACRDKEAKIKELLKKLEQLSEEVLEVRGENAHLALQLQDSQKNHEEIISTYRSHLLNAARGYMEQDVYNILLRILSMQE
Method in brief: (§1)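 Mouse MLO-Y4 cells were switched to serum-free FreeStyle medium for 4 h, chilled, then exposed to 10 nM His-tagged irisin (or adipsin as control) for 20 min. Cells were crosslinked with 1.5 mM DTSSP (30 min, ice), and bound proteins were pulled down on Ni-NTA and eluted with 250 mM imidazole. Eluates were separated by SDS-PAGE, trypsin-digested in gel, TMT 6-plex labelled and quantified by MS3-based LC-MS/MS on an Orbitrap Fusion Lumos.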

[2] = molecular target: T2, MLO-Y4 cell surface proteins (Mus musculus, UniProt Q9CYR0); conditions: co-precipitated protein Ssbp1 (SSBP_MOUSE)
T2 construct: endogenous in cells; host or cells: MLO-Y4
T2 sequence (Q9CYR0 17-152): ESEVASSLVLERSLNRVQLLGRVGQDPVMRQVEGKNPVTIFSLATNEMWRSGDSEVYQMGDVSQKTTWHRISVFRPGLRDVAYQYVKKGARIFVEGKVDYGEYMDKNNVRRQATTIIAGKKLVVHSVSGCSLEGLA
Method in brief: as §1

[3] = molecular target: T3, MLO-Y4 cell surface proteins (Mus musculus, UniProt Q8R1I1); conditions: co-precipitated protein Uqcr10 (QCR9_MOUSE)
T3 construct: endogenous in cells; host or cells: MLO-Y4
T3 sequence (Q8R1I1 1-64): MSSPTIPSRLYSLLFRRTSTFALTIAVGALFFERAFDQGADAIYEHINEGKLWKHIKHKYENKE
Method in brief: as §1

adipsin was tested, and the TMT signal-to-noise ratio [1] was 314.798, the TMT signal-to-noise ratio [2] was 432.759 and the TMT signal-to-noise ratio [3] was 243.198.
